From article PMC4889959 (Nucleic Acids Research, 2016)

B1: SLX4BTB wild type, yeast two-hybrid fusion [human] / itself (parent complex)
chain: QDKHPDRGGRTLLSLGLLVADFGAMVNNPHLSDVQFQTDSGEVLYAHKFVLYARCPLLIQYVNNEGFSAVEDGVLTQRVLLGDVSTEAARTFLHYLYTADTGLPPGLSSELSSLAHRFGVSELVHLCEQVPIATDS

Variants of: B1
Assay: yeast two-hybrid β-galactosidase assay; ONPG as substrate; SLX4BTB-F681R-F708R-AD + SLX4BTB-F681R-F708R-BD; parent: 710; read off a plot

Row | Variant | response [OD420 reading]
1 | QDKHPDRGGRTLLSLGLLVADRGAMVNNPHLSDVQFQTDSGEVLYAHKRVLYARCPLLIQYVNNEGFSAVEDGVLTQRVLLGDVSTEAARTFLHYLYTADTGLPPGLSSELSSLAHRFGVSELVHLCEQVPIATDS [chain 1 F22R, chain 1 F49R] | ~2.5

Variants of: B1
Assay: yeast two-hybrid β-galactosidase assay; ONPG as substrate; SLX4BTB-F708R-AD + SLX4BTB-F708R-BD; parent: 710; read off a plot

Row | Variant | response [OD420 reading]
2 | QDKHPDRGGRTLLSLGLLVADFGAMVNNPHLSDVQFQTDSGEVLYAHKRVLYARCPLLIQYVNNEGFSAVEDGVLTQRVLLGDVSTEAARTFLHYLYTADTGLPPGLSSELSSLAHRFGVSELVHLCEQVPIATDS [chain 1 F49R] | ~3
